According to article PMC5692591:

Tests used:
[1] = biological target: FpvAI (ferripyoverdine transporter of P. aeruginosa PAO1), recombinant (P. aeruginosa PAO1); assay: ITC
[2] = biological target: TonB1 periplasmic domain (residues 109–342) (P. aeruginosa); assay: ITC
[3] = biological target: FpvAI (ferripyoverdine transporter of P. aeruginosa PAO1), recombinant (P. aeruginosa PAO1)

| Substance | Kd [1] | dH [1] | stoichiometry N [1] | Kd [2] | fold decrease of binding against pyoS2^NTD [3] |
| --- | --- | --- | --- | --- | --- |
| N-terminal domain of pyocin S2 (pyoS2^NTD), residues 1–209 (from UniProt Q06584 1-209) (domain or fragment) | 0.24 nM | -15.8 kcal/mol | 0.78 sites | 1000 nM | – |
| Δ1–45 pyoS2^NTD (from UniProt Q06584 46-209) (domain or fragment) | – | – | – | – | 1000 fold |
